{
  "source": "paper PMC5704290",
  "system": "NCCC(=O)O",
  "assay": "purified protein",
  "conditions": "pH 7.8; 25.0 °C",
  "data": [
    {"substance": "(Mycobacterium tuberculosis H37Rv)", "values": [
      {"measurement": "Km", "result": "610 ± 10", "unit": "µM"},
      {"measurement": "kcat/Km", "result": 2600, "unit": "M⁻¹ s⁻¹"}
    ]}
  ]
}
